From the supplement of paper PMC9732359
± gives the uncertainty stated by the source.

Test: protein stability index of a GFP-peptide fusion (yeast GPS) (PSI 1-4); higher = more stable; sorted into four equal gates, so the index is relative within each strain
Settings: ubr1∆
Procedure, shortened: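 Peptides tiling yeast proteins in 17-residue segments were fused downstream of GFP, with Cherry expressed from the same plasmid. As a pooled library in yeast, mid-log cultures grown in leucine-free medium were sorted into four equal gates by GFP/Cherry fluorescence ratio. Gate plasmids were PCR-amplified and Illumina-sequenced, and barcodes linked reads to strains. Each peptide received a protein stability index equal to the sum of each gate's read frequency times its gate number.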

First: EEEKELTEEELKTRYVG [RPN11]
Second: EEGEYKNAANTEGHKGH [ISW2]
The protein stability index of the first is higher: 3.5 ± 0.14 for the first, 3.21 ± 0.053 for the second.

EEIEPKLEKLRNEKRMF [SMC2] and EEIFFKSVRILKNKAEY [RPC40] are within error of each other in protein stability index: 3.21 ± 0.079 for the first, 3.16 ± 0.047 for the second.

Compared with EEIKQSARNYDKFKLNE [SMC1], EEIKTVDPASAPNHSPE [RRP6] is lower in protein stability index: 3.31 ± 0.046 for the first, 3.19 ± 0.056 for the second.

Going from EEKEEEAAEESDDDMGF [RPP1B] to EEKLKANKEKKKAEKAA [RPL24A], the protein stability index rises from 3.31 ± 0.036 to 3.48 ± 0.067.

First: EEKPDVTYSDVGGCKDQ [RPT1]
Second: EELRDLYQTYHVLVGDL [FAS1]
The protein stability index of the first is higher: 3.41 ± 0.11 for the first, 2.38 ± 0.049 for the second.

Going from EENEDNDGNNRTNNVPM [NUT1] to EEQDVDMTGDEEQEEEP [RPC19], the protein stability index falls from 3.56 ± 0.089 to 2.76 ± 0.28.

EERERKDQYVPEVSALD [RPS17A] and EESIKIYPLIKPGSTVM [UBP6] are within error of each other in protein stability index: 2.82 ± 0.049 for the first, 2.96 ± 0.17 for the second.

Going from EEYKQLVKDRKFLREVF [RPO21] to EFANFELKDICSFAVTK [YML103C/NUP188], the protein stability index falls from 2.98 ± 0.11 to 2.05 ± 0.043.

EFDSDDDDISDDEEDEI [RPN4] and EFEKKLQETLNKSTSSE [YIL149C/MLP2] are within error of each other in protein stability index: 3.31 ± 0.098 for the first, 3.27 ± 0.15 for the second.

Going from EFIQDSAARGLSLVYEI [ECM29] to EFLINEGTPINNVYFAA [RPN14], the protein stability index falls from 3.64 ± 0.12 to 1.94 ± 0.047.

First: EFSPRLHNIWSNGLLSI [YML103C/NUP188]
Second: EFVDDYTVNVVDVFAMP [RPN11]
The protein stability index of the first is lower: 1.89 ± 0.046 for the first, 3.13 ± 0.13 for the second.

Going from EGAARGTSVYLVDKRID [DIS3] to EGGKNQAELLQLAVKII [YJL039C/NUP192], the protein stability index falls from 3.08 ± 0.12 to 2.72 ± 0.11.

EGIEIYDRKKLPRKEVD [RPC11] and EGKSVDELITEGNEKLA [RPP2A] are within error of each other in protein stability index: 3.3 ± 0.17 for the first, 3.45 ± 0.28 for the second.

Going from EGLTYKYPARRIHTNDN [SSN3] to EGNAQLVAIFGGQGNTD [FAS1], the protein stability index falls from 2.83 ± 0.055 to 1.05 ± 0.091.

EGNQIIVFVHSRKETSR [BRR2] and EGRSFTKAIEDAKKEMK [YLR335W/NUP2] are within error of each other in protein stability index: 2.48 ± 0.05 for the first, 2.59 ± 0.081 for the second.

First: EGVEYLREYLNLPEHIV [RPS10A]
Second: EGWPKFQDTLYKKIPLL [QCR10]
The protein stability index of the first is higher: 3 ± 0.087 for the first, 1.43 ± 0.069 for the second.

Going from EHFSDEETYEEKPQFKD [RPO26] to EHKQLVAEIVQNVISLG [RPC82], the protein stability index falls from 3.34 ± 0.1 to 1.8 ± 0.1.

EHRIRVFFDKRIGQEVD [RPS6A] and EHTDVIDELIDTKLRLE [YIL149C/MLP2] are within error of each other in protein stability index: 2.87 ± 0.2 for the first, 2.7 ± 0.034 for the second.

Going from EHWKVRNFKKANLVNKE [BRN1] to EIAQANSRNAIRKLVKN [RPL19A], the protein stability index rises from 1.83 ± 0.05 to 3.1 ± 0.098.

EIDDTEAEVTAEVNGGD [BRR2] and EIEDGQDGGVTPYSNES [RPO21] are within error of each other in protein stability index: 3.16 ± 0.065 for the first, 3.22 ± 0.08 for the second.

First: EIEPILMEIHNILKVDS [RGR1]
Second: EIGLLGGRYVYPVHEAH [SNU114]
The protein stability index of the first is lower: 1.76 ± 0.065 for the first, 2.03 ± 0.084 for the second.

Compared with EIGLLPEDALVNDFSDI [SMC3], EIINNKTSSQTSLSSKD [YMR153W/NUP53] is lower in protein stability index: 3.3 ± 0.11 for the first, 2.45 ± 0.045 for the second.

Going from EIKVGKQRFQGCNNLIK [ARP9] to EILGINLANEQPVLEKP [SIR4], the protein stability index falls from 3.34 ± 0.12 to 3.11 ± 0.046.

Going from EILILINDPTNKEYTLV [SIN4] to EIMEERNVEQKLNELDE [NNF1], the protein stability index rises from 2.23 ± 0.14 to 3.27 ± 0.045.

Going from EIPTQIYRTTRQDGSYT [ARP9] to EISASESKFILEALRQN [RRP45], the protein stability index falls from 3.06 ± 0.059 to 2.81 ± 0.074.

Compared with EISRLKTSLSIKVENLN [SMC2], EKENRFEIVDREKNSLE [SMC4] is higher in protein stability index: 2.56 ± 0.064 for the first, 3.3 ± 0.085 for the second.

EKFSEKMLKIWTMAFRT [ECM29] and EKGKKVTGFKDEVLETV [RPS1A] are within error of each other in protein stability index: 1.48 ± 0.09 for the first, 1.37 ± 0.1 for the second.

EKIDGMDVDSVKTTLVS [RPC82] and EKIWFAISKENLCGDIS [SIR3] are within error of each other in protein stability index: 2.1 ± 0.29 for the first, 1.91 ± 0.078 for the second.

Going from EKKLMQDNKQLYQIWIV [YDL116W/NUP84] to EKKPAAKKTSTSVDGKK [HTB2], the protein stability index rises from 1.44 ± 0.072 to 2.55 ± 0.2.

Compared with EKLAVSALEQAIIYQRG [YGL100W/SEH1], EKLLETNVSKQNDFLFS [ECM29] is lower in protein stability index: 2.4 ± 0.12 for the first, 1.76 ± 0.089 for the second.

Going from EKLLQQDREITNWARTT [MED8] to EKLYIFYKLNMPDEFNT [SRP72], the protein stability index falls from 2.06 ± 0.11 to 1.6 ± 0.041.

Compared with EKNEKEREIKRRKFDPS [UBP6], EKPFNENRFQDTLLLLP [POP4] is lower in protein stability index: 3.25 ± 0.057 for the first, 2.72 ± 0.1 for the second.

EKSGISKMSDESFAELM [RPC17] and EKSLLPKIETNVYVGMT [ISW2] are within error of each other in protein stability index: 3.42 ± 0.2 for the first, 3.2 ± 0.1 for the second.

Compared with EKSRISERDSKDRYING [YMR129W/POM152], EKVILVQEQLSKNRIIV [RET1] is lower in protein stability index: 2.54 ± 0.05 for the first, 1.37 ± 0.052 for the second.

First: EKVTIAPLVLLSALDHY [RPN8]
Second: ELDAQTLPGDDELDQEI [RPT5]
The protein stability index of the first is lower: 1.48 ± 0.029 for the first, 3.59 ± 0.094 for the second.

Compared with ELEEQESESERKYDLFQ [SMC2], ELHKKLVEAAKLLKIPK [YDL116W/NUP84] is lower in protein stability index: 3.29 ± 0.094 for the first, 2.49 ± 0.1 for the second.

ELIKNYITARIMAKRPF [FAS1] and ELLDFLTSNLSNYSRTM [YJL039C/NUP192] are within error of each other in protein stability index: 2.78 ± 0.21 for the first, 2.59 ± 0.085 for the second.

ELLEHIETIGHLITKEE [RPN5] and ELNDIDTKIDQVNGNIR [SMC3] are within error of each other in protein stability index: 3.12 ± 0.076 for the first, 3.2 ± 0.1 for the second.

Going from ELNSSEDILEDMNSNLQ [SMC1] to ELNYFVGCKNLERLTLV [GRR1], the protein stability index falls from 3.2 ± 0.054 to 3.05 ± 0.081.

First: ELPLEDFKAKYCDSMGR [RPB5]
Second: ELQIFKTANSSSDAFEK [YIL149C/MLP2]
The protein stability index of the first is higher: 3.51 ± 0.12 for the first, 2.75 ± 0.049 for the second.

Compared with ELQKLVHDLNKYKSNTN [SMC2], ELRRPGVDNLRRMGILK [RPO31] is lower in protein stability index: 3.32 ± 0.06 for the first, 3.08 ± 0.039 for the second.

First: ELRYQSHILNSHSLALN [DSN1]
Second: ELSNELSRLSTASKIIV [MED1]
The protein stability index of the first is lower: 2.66 ± 0.049 for the first, 3.26 ± 0.077 for the second.

First: ELTKSLSIAFENGDYAA [RPN12]
Second: ELVFSKGVYLILSEILC [YML103C/NUP188]
The protein stability index of the first is higher: 3.24 ± 0.12 for the first, 1.51 ± 0.026 for the second.

First: ELVVFLPALCKKMGVPY [RPL8A]
Second: EMGKLRERDITSLFHKF [RRI2]
The protein stability index of the first is higher: 3 ± 0.061 for the first, 1.95 ± 0.058 for the second.

EMGKTDKSTKTAEAPTL [YOR098C/NUP1] and EMTLPTSPLYMDPGAPL [SSN2] are within error of each other in protein stability index: 2.86 ± 0.14 for the first, 2.81 ± 0.11 for the second.

ENANADLENKFNRLKKQ [YIL149C/MLP2] and ENDTNMNETLNLKVELK [SMC4] are within error of each other in protein stability index: 3 ± 0.037 for the first, 2.99 ± 0.077 for the second.

First: ENEEFITFLQTLYIGNT [ECM29]
Second: ENIQEGTSLTIQHIAAA [CDC53]
The protein stability index of the first is lower: 2.22 ± 0.066 for the first, 2.91 ± 0.077 for the second.

Compared with ENLADLDYQIGNSESKV [LIN1], ENLFSKEEVCQGMEGTV [YMR129W/POM152] is lower in protein stability index: 3.42 ± 0.1 for the first, 2.65 ± 0.089 for the second.

First: ENNYKKRLLGTAFKSSP [RPS23A]
Second: ENRKKDESDSENDIEIK [YLR335W/NUP2]
The protein stability index of the first is lower: 2.44 ± 0.036 for the first, 2.73 ± 0.082 for the second.

Compared with ENSFYKKEASKTKWDRK [POP1], ENSGKEMDEKSYEKNED [LIN1] is higher in protein stability index: 2.22 ± 0.048 for the first, 3.16 ± 0.11 for the second.

First: ENSTSNSKPEKSSDSND [YLR335W/NUP2]
Second: ENTVGLISGAGANPRVL [RPN10]
The protein stability index of the first is higher: 3.4 ± 0.085 for the first, 1.4 ± 0.044 for the second.

ENYDAKIELEKKEKWAR [YIL149C/MLP2] showed a protein stability index of 3.12 ± 0.067.
